# Data: patent publication US20200392228A1 (PANDION OPERATIONS, published 2020)
# B1: MAdCAM antibody Clone ID 7 of Table 6 (scFv) (scFv)
# scFv: QVQLVQSGAEVKKPGASVKVSCKASGYTFTGYHIHWVRQAPGQGLEWMGIINPSGGSTIYAQKFQGRVTMTRDTSTSTVYMELSSLRSEDTAVYYCAKDWSSWYLGPFDYWGQGTLVTVSSGGGGSGGGGSGGGGSGGGGSDIQMTQSPSSLSASVGDRVTITCRASQNISSSLNWYQQKPGKAPKLLIYAASSLQSGVPSRFSGSGSGTDFTLTISSLQPEDFATYYCQQSYTTPYTFGQGTKVEIK
# B2: MAdCAM antibody Clone ID 59 of Table 6 (scFv) (scFv)
# scFv: EVQLLESGGGLVQPGGSLRLSCAASGFTFSDFWMHWVRQAPGKGLEWISYISGDSGYTNYADSVKGRFTISRDNSKNTLYLQMNSLRAEDTAVYYCARDRPYYYYMDVWGKGTTVTVSSGGGGSGGGGSGGGGSGGGGSDIQMTQSPSSLSASVGDRVTITCRASQSVSRSLAWYQQKPGKAPKLLIYAASSLQSGVPSRFSGSGSGTDFTLTISSLQPEDFATYYCQQYKSYPVTFGQGTKVEIK
# B3: MAdCAM antibody Clone ID 63 of Table 6 (scFv) (scFv)
# scFv: EVQLLESGGGLVKPGGSLRLSCAASGFTFDDYAMHWVRQAPGKGLEWVASITSSSAFIDYAASVKGRFTISRDDSKNTLYLQMNSLKTEDTAVYYCARERVDWNSYFDLWGRGTLVTVSSGGGGSGGGGSGGGGSGGGGSEIVMTQSPATLSVSPGERATLSCRASQGISNSYLAWYQQKPGQAPRLLIYGASTRATGIPARFSGSGSGTEFTLTISSLQSEDFAVYYCQQYYTYPPTFGPGTKVDIK
# B4: MAdCAM antibody Clone ID 6 of Table 6 (scFv) (scFv)
# scFv: EVQLLESGGGLVQPGGSLRLSCAASGFTFNNYAFHWVRQAPGKGLEWVSRINSYGTSTTYADSVKGRFTISRDNSKNTLYLQMNSLRAEDTAVYYCAREGPVAGYWYFDLWGQGTLVTVSSGGGGSGGGGSGGGGSGGGGSDIQMTQSPSSLSASVGDRVTITCRASQIIGTNLAWYQQKPGKAPKLLIYGASSLQSGVPSRFSGSGSGTDFTLTISSLQPEDFATYYCQQSYRLPFTFGQGTKVEIK
# notes: also called Antibody Clone 6
# B5: MAdCAM antibody Clone ID 5 of Table 6 (scFv) (scFv)
# scFv: EVQLLESGGGLVQPGGSLRLSCAASGFTFSSYWMHWVRQAPGKGLEWVSSISPGGSNIDYADSVKGRFTISRDNSKNTLYLQMNSLRAEDTAVYYCAREVQLSHYDYWGQGTLVTVSSGGGGSGGGGSGGGGSGGGGSDIQMTQSPSSLSASVGDRVTITCRASQGISNSLAWYQQKPGKAPKLLIYGASSLQSGVPSRFSGSGSGTDFTLTISSLQPEDFATYYCQQANSFPFTFGQGTKVEIK
# B6: MAdCAM antibody Clone ID 4 of Table 6 (scFv) (scFv)
# scFv: QVQLVQSGAEVKKPGASVKVSCKASGGTFSSYAISWVRQAPGQGLEWMGSINPSGDTTSYAQKFQGRVTMTRDTSTSTVYMELSSLRSEDTAVYYCAKDKAQWLVGYFDYWGQGTLVTVSSGGGGSGGGGSGGGGSGGGGSDIQMTQSPSSLSASVGDRVTITCQASQDISNSLNWYQQKPGKAPKLLIYAASSLQSGVPSRFSGSGSGTDFTLTISSLQPEDFATYYCQQSYSSVITFGQGTKVEIK
# B7: MAdCAM antibody Clone ID 2 of Table 6 (scFv) (scFv)
# scFv: QVQLVQSGAEVKKPGASVKVSCKASGYPFIGYYLHWVRQAPGQGLEWMGIINPSGGSTSYAQKFQGRVTMTRDTSTSTVYMELSSLRSEDTAVYYCAREGRLSYGMDAWGQGTLVTVSSGGGGSGGGGSGGGGSGGGGSDIQMTQSPSSLSASVGDRVTITCRASQSISSYLAWYQQKPGKAPKLLIYGASTLESGVPSRFSGSGSGTDFTLTISSLQPEDFATYYCQQTWGPPFTFGQGTKLEIK
# B8: MAdCAM antibody Clone ID 9 of Table 6 (scFv) (scFv)
# scFv: EVQLLESGGGLVQPGGSLRLSCAASGFTFSDYYMNWVRQAPGKGLEWVSVIGESGGSTYYADSVKGRFTISRDNSKNTLYLQMNSLRAEDTAVYYCAADPVSRWPKHGGGDYWGQGTLVTVSSGGGGSGGGGSGGGGSGGGGSDIQMTQSPSSLSASVGDRVTITCRASQGISSSLAWYQQKPGKAPKLLIYAASTLQSGVPSRFSGSGSGTDFTLTISSLQPEDFATYYCQQSYSTPWTFGQGTKVEIK
# B9: MAdCAM antibody Clone ID 46 of Table 7 (IgG) (antibody, V domains shown)
# VH: EVQLLESGGGLVQPGGSLRLSCAASGFSFSSYTMNWVRQAPGKGLEWVSFITSSSRTIYYADSVKGRFTISRDNSKNTLYLQMNSLRAEDTAVYYCARDRRGDYGDSWYFDLWGRGTLVTVSS
# VL: EIVMTQSPATLSVSPGERATLSCRASQSVRNYLAWYQQKPGQAPRLLIYGASTRATGIPARFSGSGSGTEFTLTISSLQSEDFAVYYCQQYGSSPLTFGGGTKVEIK
# notes: IgG format
# B10: MAdCAM antibody Clone ID 75 of Table 7 (IgG) (antibody, V domains shown)
# VH: EVQLLESGGGLVQPGGSLRLSCAASGFTFSDFWMHWVRQAPGKGLEWISYISGDSGYTNYADSVKGRFTISRDNSKNTLYLQMNSLRAEDTAVYYCARDRPYYYYMDVWGKGTTVTVSS
# VL: DIQMTQSPSSLSASVGDRVTITCRASQSVSRSLAWYQQKPGKAPKLLIYAASSLQSGVPSRFSGSGSGTDFTLTISSLQPEDFATYYCQQYKSYPVTFGQGTKVEIK
# notes: IgG format
# B11: MAdCAM antibody Clone ID 23 of Table 7 (IgG) (antibody, V domains shown)
# VH: EVQLLESGGGLVQPGGSLRLSCAASGFTFDDYAMHWVRQAPGKGLEWVSYIDTSSSHLYYADSVKGRFTISRDNSKNTLYLQMNSLRAEDTAVYYCARDEAAAGYYGMDVWGQGTTVTVSS
# VL: DIQMTQSPSSLSASVGDRVTITCQAGQDISNYLNWYQQKPGKAPKLLIYDASNLETGVPSRFSGSGSGTDFTLTISSLQPEDFATYYCQQTYSTPITFGQGTKLEIK
# notes: IgG format
# B12: MAdCAM antibody Clone ID 79 of Table 7 (IgG) (antibody, V domains shown)
# VH: EVQLLESGGGLVKPGGSLRLSCAASGFTFDDYAMHWVRQAPGKGLEWVASITSSSAFIDYAASVKGRFTISRDDSKNTLYLQMNSLKTEDTAVYYCARERVDWNSYFDLWGRGTLVTVSS
# VL: EIVMTQSPATLSVSPGERATLSCRASQGISNSYLAWYQQKPGQAPRLLIYGASTRATGIPARFSGSGSGTEFTLTISSLQSEDFAVYYCQQYYTYPPTFGPGTKVDIK
# notes: IgG format
# Target: T1, human MAdCAM protein (human, UniProt Q13477 19-317)
# T1 construct: used for Octet, SPR, ELISA and plate capture; construct not described; also called recombinant human MAdCAM; soluble monomeric human MAdCAM
# T1 sequence (looked up): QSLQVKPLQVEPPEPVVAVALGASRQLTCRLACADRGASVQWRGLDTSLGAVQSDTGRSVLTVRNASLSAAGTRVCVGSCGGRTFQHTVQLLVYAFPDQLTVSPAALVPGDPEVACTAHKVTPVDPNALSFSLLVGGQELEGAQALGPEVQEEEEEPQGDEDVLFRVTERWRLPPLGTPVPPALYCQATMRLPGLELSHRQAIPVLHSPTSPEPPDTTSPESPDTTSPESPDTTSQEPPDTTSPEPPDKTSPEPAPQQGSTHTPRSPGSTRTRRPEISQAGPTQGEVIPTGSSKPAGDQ
# Experiment: Octet
row,Binder,binding result
1,B1,binds
2,B2,binds
3,B3,binds
4,B4,binds
5,B5,binds
6,B6,binds
7,B7,binds
8,B8,binds

# Target: T2, mouse MAdCAM protein (mouse, UniProt Q61826 22-365, limits assumed)
# T2 construct: also called recombinant mouse MAdCAM-1; mMAdCAM-1
# T2 sequence (looked up): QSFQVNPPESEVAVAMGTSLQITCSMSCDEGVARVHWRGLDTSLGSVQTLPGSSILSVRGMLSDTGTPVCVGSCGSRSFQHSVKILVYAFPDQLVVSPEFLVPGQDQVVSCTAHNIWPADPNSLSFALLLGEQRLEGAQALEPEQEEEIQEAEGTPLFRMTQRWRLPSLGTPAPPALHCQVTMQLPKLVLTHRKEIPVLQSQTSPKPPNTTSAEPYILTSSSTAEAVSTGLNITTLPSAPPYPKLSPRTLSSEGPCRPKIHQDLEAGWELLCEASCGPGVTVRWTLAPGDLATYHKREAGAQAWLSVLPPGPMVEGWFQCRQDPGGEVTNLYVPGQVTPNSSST
# Experiment: Octet
row,Binder,binding result
1,B1,binds
2,B2,binds
3,B3,binds
4,B4,no binding
5,B5,binds
6,B6,binds
7,B7,binds
8,B8,binds

# Target: T1, human MAdCAM protein
# Experiment: Octet
# Remark: another data set of the same source
row,Binder,binding result
1,B9,binds
2,B10,binds
3,B11,binds
4,B12,binds

# Target: T2, mouse MAdCAM protein
# Experiment: Octet
# Remark: another data set of the same source
row,Binder,binding result
1,B9,no binding
2,B10,binds
3,B11,no binding
4,B12,binds

# Target: T3, human MAdCAM expressed on cells (human, UniProt Q13477 19-382)
# T3 construct: whole, on cells; also called MADCAM1
# T3 sequence (looked up): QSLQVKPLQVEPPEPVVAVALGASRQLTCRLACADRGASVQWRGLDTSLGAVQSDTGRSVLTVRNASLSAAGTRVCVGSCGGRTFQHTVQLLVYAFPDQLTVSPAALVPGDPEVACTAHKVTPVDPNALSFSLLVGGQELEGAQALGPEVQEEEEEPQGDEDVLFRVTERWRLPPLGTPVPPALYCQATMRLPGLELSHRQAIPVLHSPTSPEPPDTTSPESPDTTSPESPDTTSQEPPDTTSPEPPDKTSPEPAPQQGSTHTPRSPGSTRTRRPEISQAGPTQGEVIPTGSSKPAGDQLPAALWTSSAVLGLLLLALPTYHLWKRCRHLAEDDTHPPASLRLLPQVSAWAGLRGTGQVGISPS
# Experiment: cell binding
row,Binder,binding result
1,B1,binds
2,B2,binds
3,B3,binds
4,B4,binds
5,B5,binds
6,B6,binds
7,B7,binds
8,B8,binds

# Target: T4, mouse MAdCAM expressed on cells (mouse, UniProt Q61826 22-405)
# T4 construct: whole, on cells
# T4 sequence (looked up): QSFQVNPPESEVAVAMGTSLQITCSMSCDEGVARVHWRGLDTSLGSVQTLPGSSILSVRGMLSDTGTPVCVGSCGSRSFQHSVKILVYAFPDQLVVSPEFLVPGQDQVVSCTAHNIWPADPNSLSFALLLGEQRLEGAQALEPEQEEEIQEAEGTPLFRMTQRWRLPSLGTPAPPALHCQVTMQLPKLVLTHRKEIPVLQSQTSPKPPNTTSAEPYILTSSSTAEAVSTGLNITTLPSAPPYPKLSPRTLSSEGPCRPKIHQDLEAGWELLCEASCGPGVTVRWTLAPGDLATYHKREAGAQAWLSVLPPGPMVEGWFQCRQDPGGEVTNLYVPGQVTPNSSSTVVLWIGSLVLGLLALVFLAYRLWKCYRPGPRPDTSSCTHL
# Experiment: cell binding
row,Binder,binding result
1,B1,binds
2,B2,binds
3,B3,binds
4,B4,no binding
5,B5,binds
6,B6,binds
7,B7,binds
8,B8,binds

# Target: T3, human MAdCAM expressed on cells
# Experiment: cell binding
# Remark: another data set of the same source
row,Binder,binding result
1,B9,binds
2,B10,binds
3,B11,binds
4,B12,binds

# Target: T4, mouse MAdCAM expressed on cells
# Experiment: cell binding
# Remark: another data set of the same source
row,Binder,binding result
1,B9,no binding
2,B10,binds
3,B11,no binding
4,B12,binds
